Common to all, as to type: cell-based
The test system of experiment [1] is TβRII. Put plainly: TβRII protein after exogenous HAPLN1 and/or HA in endogenous HAPLN1-deficient human hair germinal matrix cells. The settings on record: after HAPLN1 siRNA; HAPLN1 25 ng/mL and/or HA 25 μg/mL; TGF-β2 2 ng/mL, 23 hours. The procedure: (§1) The human hair germinal matrix cells were dispensed into a poly-D-lysine 6-well plate at a concentration of 5.0×10^4 per well and cultured for 24 hours. After 24 hours, the medium was removed and replaced with a low-serum medium. HAPLN1 siRNA and scrambled siRNA were added at a concentration of 25 pmol per well and incubated for 24 hours. After the siRNA and the medium were all removed, the medium was replaced with a serum-free medium having HAPLN1 (25 ng/mL) or HA (25 μg/mL) added thereto, and cultured for 1 hour. TGF-β2 (2 ng/mL) was treated and incubated for 23 hours. After collecting cells, a lysis buffer (25 mM Tris-HCl, 1 mM EDTA, 0.1% Triton-X100, phosphatase inhibitor, and protease inhibitor) was added, and all the cells were broken through sonication. TβRII in the sample was measured using Western blotting. The optical density of TβRII was compared to that of GAPDH using a densitometer.

For another experiment, the system named is HAS2. The experiment in a line: HAS2 protein in human hair germinal matrix cells deficient in endogenous HA (4-MU). The settings on record: 4-MU-treated cells; HAPLN1 25 ng/mL; TGF-β2 2 ng/mL. The procedure:
4-MU (4-methylumbelliferone) is an inhibitor of HA-producing hyaluronan synthase 2 (HAS2), which produces HA. In order to confirm the effect of HA produced in cells, HA production in cells was inhibited using 4-MU.
The human hair germinal matrix cells, in which the endogenous HA was inhibited by treating 4-MU, were dispensed into a poly-D-lysine 6-well plate at a concentration of 5.0×10^4 per well and cultured for 24 hours. After 24 hours, the medium was removed and replaced with a new serum-free medium. HAPLN1 was treated with 25 ng/mL, and after 1 hour, TGF-β2 (2 ng/mL) was treated. After 23 hours, cells were collected, a lysis buffer (25 mM Tris-HCl, 1 mM EDTA, 0.1% Triton-X100, phosphatase inhibitor, and protease inhibitor) was added, and all the cells were broken through sonication. HAS2 and TβRII in the sample were measured using Western blotting. The optical density of each of HAS2 and TβRII was compared to that of GAPDH using a densitometer.

Experiment [2] relates to TβRII. Put plainly: TβRII protein after HAPLN1 and/or HA in CD44-deficient human hair germinal matrix cells. The settings on record: after CD44 siRNA; HAPLN1 25 ng/mL and/or HA 25 μg/mL; TGF-β2 2 ng/mL, 23 hours. Here is the method: as §1, with “matrix cells, which were made to be deficient in CD44 by using CD44 siRNA,” for “matrix cells”, “medium. CD44” for “medium. HAPLN1”

The subject of another experiment is p-c-Raf. Put plainly: p-c-Raf in human hair germinal matrix cells stimulated with TGF-β2 (Western blotting). The settings on record: HAPLN1 25 ng/mL and/or HA 25 μg/mL; TGF-β2 2 ng/mL, 1 hour. The procedure:
Human hair germinal matrix cells were dispensed into a poly-D-lysine 6-well plate at a concentration of 5.0×10^4 per well and cultured for 24 hours. After 24 hours, the medium was removed and replaced with a new serum-free medium. HAPLN1 was treated with 25 ng/mL and HA with 25 μg/mL, incubated for 23 hours, and then stimulated with TGF-β2 (2 ng/mL) for 1 hour. After collecting cells, a lysis buffer (25 mM Tris-HCl, 1 mM EDTA, 0.1% Triton-X100, phosphatase inhibitor, and protease inhibitor) was added, and all the cells were broken through sonication. p-ERK1/2, p-Smad2, p-MEK1/2, and p-c-Raf in the sample were measured using Western blotting. Optical densities of p-ERK1/2, p-Smad2, p-MEK1/2, and p-c-Raf were compared to those of ERK1/2, Smad2/3, MEK1, and c-Raf using a densitometer. Here, ERK1/2, Smad2/3, MEK1, and c-Raf were used as loading controls.
In general terms: A western blot detects proteins with antibodies after separation by electrophoresis.

In experiment [3] the test system is human dermal papilla cells. Put plainly: Dermal papilla cell proliferating effect, CCK-8 (Example 13). The settings on record: proteins 25 ng/ml, minoxidil 10 μM; TGF-β2 (2 ng/ml) present or absent. Here is the method: Human dermal papilla cells were cultured in a 37° C., 5% CO2 incubator using a dermal papilla cell proliferation medium (Promocell). When the cells were about 90% full, the cells were detached with a 0.05% Trypsin/EDTA solution and then centrifuged at 1000 rpm for 3 minutes to recover only the cells. The cells were dispensed into a 96-well plate at 2.0×10^3 per well, cultured for 24 hours, and HAPLN1, CX3CL1 and CDON were diluted to have a final concentration of 25 ng/ml in serum-free medium. After removing the existing culture medium, 200 μl of diluted HAPLN1, CX3CL1, and CDON were dispensed into each well and cultured for 1 hour. To reduce an experimental variation, 3 wells per group were treated (triplication). In addition, minoxidil, which is known to proliferate dermal papilla cells, was treated with 10 μM and set as a positive control.
(§2) In the same manner as described above, HAPLN1 (25 ng/ml), CX3CL1 (25 ng/ml), CDON (25 ng/ml) or minoxidil (10 μM), and human recombinant TGF-β2 were diluted to a final concentration of 2 ng/ml, and the medium of the group containing TGF-β2 was replaced by 200 μl. To reduce an experimental variation, 3 wells per group were treated (triplication).
(§3) After incubation for 23 hours, the plate was removed from the incubator, and 20 μl of CCK-8 (WST-8) solution was added to the plate containing the medium and the reagent per 200 μl of the medium for the reaction to be carried out at 37° C. for 1 hour.

For experiment [4], the system named is human hair germinal matrix cells. The experiment in a line: Hair germinal matrix cell proliferating effect, CCK-8 (Example 13). The settings on record: 25 ng/ml. The procedure: as §2, §3
Human hair germinal matrix cells were released in a poly-D-lysine-coated flask using a mesenchymal stem cell medium (MSCM), and cultured in a 5% CO2 incubator at 37° C. When the cells were about 90% full, the cells were detached with a 0.05% Trypsin/EDTA solution, and then only the cells were recovered by centrifugation at 1000 rpm for 3 minutes. The recovered cells were dispensed into 96-well poly-D-lysine coated plates (BD bioscience) at 2.0×10^3 per well and cultured for 24 hours, and the final concentrations of HAPLN1, CX3CL1 and CDON were diluted to 25 ng/ml in a serum-free medium. The subsequent process was performed in the same manner as the experiment for the dermal papilla cells to measure the absorbance, and the results are shown in FIG. 22.

B1: hyaluronan and proteoglycan link protein 1 (protein, UniProt P10915 16-354, looked up)
Hyaluronan and proteoglycan …: DHLSDNYTLDHDRAIHIQAENGPHLLVEAEQAKVFSHRGGNVTLPCKFYRDPTAFGSGIHKIRIKWTKLTSDYLKEVDVFVSMGYHKKTYGGYQGRVFLKGGSDSDASLVITDLTLEDYGRYKCEVIEGLEDDTVVVALDLQGVVFPYFPRLGRYNLNFHEAQQACLDQDAVIASFDQLYDAWRGGLDWCNAGWLSDGSVQYPITKPREPCGGQNTVPGVRNYGFWDKDKSRYDVFCFTSNFNGRFYYLIHPTKLTYDEAVQACLNDGAQIAKVGQIFAAWKILGYDRCDAGWLADGSVRYPISRPRRRCSPTEAAVRFVGFPDKKHKLYGVYCFRAYN
notes: extracellular matrix protein found in cartilage; stabilizes aggregates of hyaluronic acid and proteoglycans
For B1, the “TβRII protein in endogenous HAPLN1-deficient cells” value in the experiment with TβRII [1] is listed as “recovered”. The HAS2 level entry in the experiment on HAS2 is recorded as “recovered”. The “TβRII protein in CD44-deficient cells” value in the experiment with TβRII [2] is on record as “not confirmed that TβRII was recovered”. In addition, in the experiment with p-c-Raf, the “c-Raf activity (p-c-Raf compared to c-Raf)” value was “increased activities”. Further, in experiment [3], the “dermal papilla cell proliferation (absorbance at 450 nm)” value is “did not proliferate dermal papilla cells or rather inhibited proliferation thereof”. In addition, the figures for the “hair germinal matrix cell proliferation (absorbance at 450 nm)” value in experiment [4] (absence of TGF-β2) and in experiment [4] (presence of TGF-β2 (2 ng/ml)) were “significant hair germinal matrix cell proliferating activity” and “particularly superior hair germinal matrix cell proliferating activity”, respectively.

For the origin of these results see patent US20220202899A1, “COMPOSITION FOR PREVENTION OR TREATMENT OF HAIR LOSS INCLUDING HAPLN1” (HAPLNSCIENCE INC., priority 2019, published 2022).
